Experiment [1] concerns the target T1, human soluble urokinase plasminogen activator receptor (hsuPAR) (human, UniProt Q03405 23-303, limits assumed).
T1 construct: also called human suPAR; rhuPAR-His
As to the kind of experiment: BLI (Octet) off-rate screen of scFv. (Biolayer interferometry detects binding as a change in optical thickness at a sensor tip.)

The target in experiment [2] is T2, cynomolgus soluble urokinase plasminogen activator receptor (cynomolgus suPAR) (cynomolgus, UniProt Q9GK78 23-303, limits assumed).
T2 construct: also called cynomolgus uPAR; cynoPLAUR-His
T2 sequence (Q9GK78 23-303 limits assumed): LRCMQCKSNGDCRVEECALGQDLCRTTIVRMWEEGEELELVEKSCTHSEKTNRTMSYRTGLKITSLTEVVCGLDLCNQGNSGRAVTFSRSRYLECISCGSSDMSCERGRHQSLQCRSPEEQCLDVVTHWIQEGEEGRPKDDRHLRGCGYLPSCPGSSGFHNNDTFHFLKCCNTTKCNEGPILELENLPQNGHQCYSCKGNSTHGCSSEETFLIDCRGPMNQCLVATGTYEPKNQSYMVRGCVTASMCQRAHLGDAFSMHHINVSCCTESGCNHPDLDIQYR
Nature of the experiment: BLI (Octet) off-rate screen of scFv.

Consider 14 molecules from patent US20250215104A1 (WALDEN BIOSCIENCES, published 2025).

T1 sequence (Q03405 23-303 limits assumed): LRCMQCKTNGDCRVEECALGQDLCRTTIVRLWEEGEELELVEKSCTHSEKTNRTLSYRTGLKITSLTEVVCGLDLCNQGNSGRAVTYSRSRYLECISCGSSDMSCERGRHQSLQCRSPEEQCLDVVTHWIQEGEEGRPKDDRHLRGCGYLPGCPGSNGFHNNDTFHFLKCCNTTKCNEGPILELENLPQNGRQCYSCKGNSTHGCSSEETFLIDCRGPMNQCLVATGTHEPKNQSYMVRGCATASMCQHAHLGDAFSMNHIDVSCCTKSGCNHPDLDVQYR

B1: suPAR_DB01_H03 (scFv, V domains shown)
VH: QVQLVQSGAEVKKPGASVKVSCKASGDTITNYYMHWVRQAPGQGLEWMGWIDTNSGGTQYAQKFQGRVTMTRDTSTSTVYMELSSLRSEDTAVYYCARGYDVDWFVYWGQGTLVTVSS
VL: DIQMTQSPSSLSASVGDRVTITCSARSSVSYMYWYQQKPGKAPKLLIYRTSNLASGVPSRFSGSGSGTDFTLTISSLQPEDFATYYCQQYHSYPPTFGGGTKVEIK
notes: Screened as scFv
For the molecule B1, the off-rate (koff) in experiment [1] came to 0.001 s⁻¹; in experiment [2] it was 0.000677 s⁻¹.

B2: suPAR_DB02_A10 (scFv, V domains shown)
VH: QVQLVQSGAEVKKPGASVKVSCKASGYTFTGNYMHWVRQAPGQGLEWMGWIDHENGNTIYDQKFQGRVTMTRDTSTSTVYMELSSLRSEDTAVYYCARGSDVDWFVYWGQGTLVTVSS
VL: DIQMTQSPSSLSASVGDRVTITCSARSSVSYMYWYQQKPGKAPKLLIYRTSNLASGVPSRFSGSGSGTDFTLTISSLQPEDFATYYCQQYHSYPPTFGGGTKVEIK
notes: Screened as scFv
Consider B2, for which the figures for the koff in experiment [1] and in experiment [2] were 0.00319 s⁻¹ and 0.00024 s⁻¹, respectively.

B3: suPAR_DB02_A05 (scFv, V domains shown)
VH: QVQLVQSGAEVKKPGASVKVSCKASGDTFTSYYMHWVRQAPGQGLEWMGWIDPENGNTIYAQKFQGRVTMTRDTSTSTVYMELSSLRSEDTAVYYCARGYDVDWFVYWGQGTLVTVSS
VL: DIQMTQSPSSLSASVGDRVTITCSARQSVSYMYWYQQKPGKAPKLLIYRTSNLASGVPSRFSGSGSGTDFTLTISSLQPEDFATYYCQQYHSYPPTFGGGTKVEIK
notes: Screened as scFv
For the molecule B3, the koff in experiment [1] amounted to 0.00521 s⁻¹; in experiment [2], 0.000151 s⁻¹.

B4: suPAR_DB01_H10 (scFv, V domains shown)
VH: QVQLVQSGAEVKKPGASVKVSCKASGYTFTNYYMHWVRQAPGQGLEWMGWIDHENGSTIYAQKFQGRVTMTRDTSTSTVYMELSSLRSEDTAVYYCARGYDVDWFVYWGQGTLVTVSS
VL: DIQMTQSPSSLSASVGDRVTITCSARQSVSYMYWYQQKPGKAPKLLIYRTSNLASGVPSRFSGSGSGTDFTLTISSLQPEDFATYYCQQYHSYPPTFGGGTKVEIK
notes: Screened as scFv
Take B4: the koff in experiment [1] was 0.000603 s⁻¹; in experiment [2], 0.000374 s⁻¹.

B5: suPAR_DB02_A04 (scFv, V domains shown)
VH: QVQLVQSGAEVKKPGASVKVSCKASGYTFTGYYVHWVRQAPGQGLEWMGWIDHENGNTIYDQKFQGRVTMTRDTSTSTVYMELSSLRSEDTAVYYCARGYDVDWFVYWGQGTLVTVSS
VL: DIQMTQSPSSLSASVGDRVTITCRASSSVSYMYWYQQKPGKAPKLLIYRTSNLASGVPSRFSGSGSGTDFTLTISSLQPEDFATYYCQQYHSYPPTFGGGTKVEIK
notes: Screened as scFv
For B5, the dissociation rate constant (koff) in experiment [1] was determined as 0.00236 s⁻¹; in experiment [2], 0.000521 s⁻¹.

B6: suPAR_DB01_H07 (scFv, V domains shown)
VH: QVQLVQSGAEVKKPGASVKVSCKASGDTFSNYYMHWVRQAPGQGLEWMGWIDHENGSTIYAQKFQGRVTMTRDTSTSTVYMELSSLRSEDTAVYYCARGYDVDWFVYWGQGTLVTVSS
VL: DIQMTQSPSSLSASVGDRVTITCSARSSVSYMYWYQQKPGKAPKLLIYRTSNLASGVPSRFSGSGSGTDFTLTISSLQPEDFATYYCQQYHSYPPTFGGGTKVEIK
notes: Screened as scFv
Take B6: the results for the koff in experiment [1] and in experiment [2] were 0.00138 s⁻¹ and 0.000219 s⁻¹, respectively.

B7: suPAR_DB02_A09 (scFv, V domains shown)
VH: QVQLVQSGAEVKKPGASVKVSCKASGYTFTNYYMHWVRQAPGQGLEWMGWIDPEGGSTIYDQKFQGRVTMTRDTSTSTVYMELSSLRSEDTAVYYCARGYDVDWFVYWGQGTLVTVSS
VL: DIQMTQSPSSLSASVGDRVTITCSARQSISYMYWYQQKPGKAPKLLIYRTSNLASGVPSRFSGSGSGTDFTLTISSLQPEDFATYYCQQYHSYPPTFGGGTKVEIK
notes: Screened as scFv
As for B7, the figures for the koff in experiment [1] and in experiment [2] were 0.00613 s⁻¹ and 0.000484 s⁻¹, respectively.

B8: suPAR_DB02_A07 (scFv, V domains shown)
VH: QVQLVQSGAEVKKPGASVKVSCKASGYNIKDYYIHWVRQAPGQGLEWMGWISPDSGVTNYAQKFQGRVTMTRDTSTSTVYMELSSLRSEDTAVYYCARGYDVDWFVYWGQGTLVTVSS
VL: DIQMTQSPSSLSASVGDRVTITCSARQSVSYMYWYQQKPGKAPKLLIYRTSNLASGVPSRFSGSGSGTDFTLTISSLQPEDFATYYCQQYHSYPPTFGGGTKVEIK
notes: Screened as scFv
For the molecule B8, the off-rate (koff) in experiment [1] was determined as 0.00114 s⁻¹; in experiment [2] it was 0.000352 s⁻¹.

B9: suPAR_DB01_H06 (scFv, V domains shown)
VH: QVQLVQSGAEVKKPGASVKVSCKASGFNIKDYYMHWVRQAPGQGLEWMGWIDPENGNTIYDQKFQGRVTMTRDTSTSTVYMELSSLRSEDTAVYYCARGYDVDWFVYWGQGTLVTVSS
VL: DIQMTQSPSSLSASVGDRVTITCSARQSISYMYWYQQKPGKAPKLLIYRTSNLASGVPSRFSGSGSGTDFTLTISSLQPEDFATYYCQQYHSYPPTFGGGTKVEIK
notes: Screened as scFv
For the molecule B9, the koff was determined as 0.0052 s⁻¹ in experiment [1] and 0.000129 s⁻¹ in experiment [2].

B10: suPAR_DB01_H05 (scFv, V domains shown)
VH: QVQLVQSGAEVKKPGASVKVSCKASGYTFTGNYVHWVRQAPGQGLEWMGWIDHENGNTIYDQKFQGRVTMTRDTSTSTVYMELSSLRSEDTAVYYCARGYDVDWFVYWGQGTLVTVSS
VL: DIQMTQSPSSLSASVGDRVTITCSARSSVSYMYWYQQKPGKAPKLLIYRTSNLASGVPSRFSGSGSGTDFTLTISSLQPEDFATYYCQQYHSYPPTFGGGTKVEIK
notes: Screened as scFv
As for B10, the koff in experiment [1] was found to be 0.00152 s⁻¹; in experiment [2], 0.000432 s⁻¹.

B11: suPAR_DB02_A08 (scFv, V domains shown)
VH: QVQLVQSGAEVKKPGASVKVSCKASGYTFTTYYMHWVRQAPGQGLEWMGWIDPENGNTIYAQKFQGRVTMTRDTSTSTVYMELSSLRSEDTAVYYCARGYDVDWFVYWGQGTLVTVSS
VL: DIQMTQSPSSLSASVGDRVTITCSARSSVSYMYWYQQKPGKAPKLLIYRTSNLASGVPSRFSGSGSGTDFTLTISSLQPEDFATYYCQQYHSYPPTFGGGTKVEIK
notes: Screened as scFv
For B11, the values for the koff in experiment [1] and in experiment [2] were 0.00363 s⁻¹ and 7.98e-05 s⁻¹, respectively.

B12: suPAR_DB02_A11 (scFv, V domains shown)
VH: QVQLVQSGAEVKKPGASVKVSCKASGGTFSSYYMHWVRQAPGQGLEWMGWIDPSNGNTIYDQKFQGRVTMTRDTSTSTVYMELSSLRSEDTAVYYCARGYDVDWFVYWGQGTLVTVSS
VL: DIQMTQSPSSLSASVGDRVTITCSARQSVSYMYWYQQKPGKAPKLLIYRTSNLASGVPSRFSGSGSGTDFTLTISSLQPEDFATYYCQQYHSYPPTFGGGTKVEIK
notes: Screened as scFv
Regarding B12, the values for the koff in experiment [1] and in experiment [2] were 0.00447 s⁻¹ and 0.000232 s⁻¹, respectively.

B13: suPAR_DB01_H04 (scFv, V domains shown)
VH: QVQLVQSGAEVKKPGASVKVSCKASGYTFTNYYMHWVRQAPGQGLEWMGWIDPNSGGTNYAQKFQGRVTMTRDTSTSTVYMELSSLRSEDTAVYYCARGYDVDWFVYWGQGTLVTVSS
VL: DIQMTQSPSSLSASVGDRVTITCSARSSVSYMYWYQQKPGKAPKLLIYRTSNLASGVPSRFSGSGSGTDFTLTISSLQPEDFATYYCQQYHSYPPTFGGGTKVEIK
notes: Screened as scFv
On to B13, for which the results for the koff in experiment [1] and in experiment [2] were 0.00242 s⁻¹ and 0.000225 s⁻¹, respectively.

B14: suPAR_DB02_A03 (scFv, V domains shown)
VH: QVQLVQSGAEVKKPGASVKVSCKASGYTFTDYYIHWVRQAPGQGLEWMGWIDPENGNTIYAQKFQGRVTMTRDTSTSTVYMELSSLRSEDTAVYYCARGYDVDWFVYWGQGTLVTVSS
VL: DIQMTQSPSSLSASVGDRVTITCSARSSVSYMYWYQQKPGKAPKLLIYRTSNLASGVPSRFSGSGSGTDFTLTISSLQPEDFATYYCQQYHSYPPTFGGGTKVEIK
notes: Screened as scFv
With B14, the koff was found to be 0.00198 s⁻¹ in experiment [1] and 0.000341 s⁻¹ in experiment [2].

For orientation: koff means the first-order rate constant of dissociation. Lower therefore signals slow dissociation.
